B1: TFE3 (parent)
chain: FPSDHLGDLGDPFHLGLEDILMEE

Variants of: B1
Assay: protein stability index of a GFP-peptide fusion (GPS, HEK-293T) (PSI 1-6); higher = more stable
Conditions: c terminus: a fixed tail appended
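Further: lentivirally expressed fusions sorted by FACS into six bins by GFP to DsRed ratio, PSI derived from sequencing read proportions per bin multiplied by bin number.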

Variant	protein stability index
FPSIHLGDLGDPFHLGLEDILMEE [D4I]	2.76
FPSWHLGDLGDPFHLGLEDILMEE [D4W]	1.7
FPSKHLGDLGDPFHLGLEDILMEE [D4K]	1.87
FPSGHLGDLGDPFHLGLEDILMEE [D4G]	2.49
FPSLHLGDLGDPFHLGLEDILMEE [D4L]	2.37
FPSFHLGDLGDPFHLGLEDILMEE [D4F]	2.75
FPSNHLGDLGDPFHLGLEDILMEE [D4N]	3.22
FPSTHLGDLGDPFHLGLEDILMEE [D4T]	2.35
FPSDHLGDLGDQFHLGLEDILMEE [P12Q]	4.29
FPSDHLGDLGDDFHLGLEDILMEE [P12D]	4.35
FPSDHLGDLGDIFHLGLEDILMEE [P12I]	3.23
FPSDHLGDLGDAFHLGLEDILMEE [P12A]	3.11
FPSDHLGDLGDTFHLGLEDILMEE [P12T]	4.24
FPSDHLGDLGDYFHLGLEDILMEE [P12Y]	3.4
FPSDHLGDLGDEFHLGLEDILMEE [P12E]	4.15
FPSDHLGDLGDFFHLGLEDILMEE [P12F]	4.01
FPSDHLGDLGDSFHLGLEDILMEE [P12S]	4.84
FPSDHLGDLGDRFHLGLEDILMEE [P12R]	4.1
FPSDHLGDLGDPFHLGLESILMEE [D19S]	2.69
FPSDHLGDLGDPFHLGLEAILMEE [D19A]	2.1
FPSDHLGDLGDPFHLGLEEILMEE [D19E]	3.2
FPSDHLGDLGDPFHLGLEQILMEE [D19Q]	2.83
FPSDHLGDLGDPFHLGLECILMEE [D19C]	2.91
FPSDHLGDLGDPFHLGLEIILMEE [D19I]	2.92

Variant	protein stability index
FPSDHLGDLGDPFHLGLETILMEE [D19T]	2.58
FPSDHLGDLGDPFHLGLEDILMVE [E23V]	3.85
FPSDHLGDLGDPFHLGLEDILMNE [E23N]	2.65
FPSDHLGDLGDPFHLGLEDILMLE [E23L]	2.44
FPSDHLGDLGDPFHLGLEDILMFE [E23F]	2.42
FPSDHLGDLGDPFHLGLEDILMSE [E23S]	2.81
FPSDHLGDLGDPFHLGLEDILMPE [E23P]	2.76
FPSDHLGDLGDPFHLGLEDILMGE [E23G]	2.47
FPSDHLGDLGDPFHLGLEDILMTE [E23T]	3.24
FPSDHLGDLGDPFHLGLEDILMHE [E23H]	2.86
FPSDHLGDLGDPFHLGLEDILMCE [E23C]	2.03
FPSDHLGDLGDPFHLGLEDILMAE [E23A]	2.45
FPSDHLGDLDDPFHLGLEDILMEE [G10D]	3.37
FPSDHLGDLIDPFHLGLEDILMEE [G10I]	3.04
FPSDHLGDLCDPFHLGLEDILMEE [G10C]	2.93
FPSDHLGDLADPFHLGLEDILMEE [G10A]	3.41
FPSDHLGDLRDPFHLGLEDILMEE [G10R]	3.3
FPSDHLGDLYDPFHLGLEDILMEE [G10Y]	2.21
FPSDHLGDLLDPFHLGLEDILMEE [G10L]	3.05
FPSDHLGDLMDPFHLGLEDILMEE [G10M]	3.33
FPSDHLGDLEDPFHLGLEDILMEE [G10E]	3.67
FPSDHLGDLNDPFHLGLEDILMEE [G10N]	2.97
FPSDHLGDLQDPFHLGLEDILMEE [G10Q]	3.05
FPSDHLGDLGDPFHLGLEDILMEP [E24P]	2.77

Variant	protein stability index
FPSDHLGDLGDPFHLGLEDILMEK [E24K]	2.59
FPSDHLGDLGDPFHLGLEDILMEC [E24C]	2.96
FPSDHLGDLGDPFHLGLEDILMEV [E24V]	1.59
FPSDHLGDLGDPFHLGLEDILMET [E24T]	2.95
FPSDHLGDLGDPFHLGLEDILMED [E24D]	3.54
IPSDHLGDLGDPFHLGLEDILMEE [F1I]	4.61
TPSDHLGDLGDPFHLGLEDILMEE [F1T]	4.74
APSDHLGDLGDPFHLGLEDILMEE [F1A]	5.42
LPSDHLGDLGDPFHLGLEDILMEE [F1L]	4.55
MPSDHLGDLGDPFHLGLEDILMEE [F1M]	4.82
RPSDHLGDLGDPFHLGLEDILMEE [F1R]	4.64
NPSDHLGDLGDPFHLGLEDILMEE [F1N]	4.91
KPSDHLGDLGDPFHLGLEDILMEE [F1K]	4.41
VPSDHLGDLGDPFHLGLEDILMEE [F1V]	4.88
EPSDHLGDLGDPFHLGLEDILMEE [F1E]	4.96
CPSDHLGDLGDPFHLGLEDILMEE [F1C]	5.03
FKSDHLGDLGDPFHLGLEDILMEE [P2K]	3.97
FTSDHLGDLGDPFHLGLEDILMEE [P2T]	2.74
FESDHLGDLGDPFHLGLEDILMEE [P2E]	4.51
FSSDHLGDLGDPFHLGLEDILMEE [P2S]	3.96
FPSDHLIDLGDPFHLGLEDILMEE [G7I]	3.12
FPSDHLPDLGDPFHLGLEDILMEE [G7P]	4.3
FPSDHLADLGDPFHLGLEDILMEE [G7A]	3.94
FPSDHLCDLGDPFHLGLEDILMEE [G7C]	2.89

Variant	protein stability index
FPSDHLVDLGDPFHLGLEDILMEE [G7V]	3.77
FPSDHLDDLGDPFHLGLEDILMEE [G7D]	4.3
FPSDHLEDLGDPFHLGLEDILMEE [G7E]	3.92
FPSDHLFDLGDPFHLGLEDILMEE [G7F]	2.69
FPSDHLGDLGDPFHLGHEDILMEE [L17H]	4.29
FPSDHLGDLGDPFHLGVEDILMEE [L17V]	3.09
FPSDHLGDLGDPFHLGCEDILMEE [L17C]	3.5
FPSDHLGDLGDPFHLGNEDILMEE [L17N]	4.21
FPSDWLGDLGDPFHLGLEDILMEE [H5W]	1.35
FPSDNLGDLGDPFHLGLEDILMEE [H5N]	3.87
FPSDRLGDLGDPFHLGLEDILMEE [H5R]	3.52
FPSDMLGDLGDPFHLGLEDILMEE [H5M]	3.33
FPSDTLGDLGDPFHLGLEDILMEE [H5T]	3.88
FPSDQLGDLGDPFHLGLEDILMEE [H5Q]	3.85
FPSDHLGDYGDPFHLGLEDILMEE [L9Y]	3.29
FPSDHLGDTGDPFHLGLEDILMEE [L9T]	3.79
FPSDHLGDIGDPFHLGLEDILMEE [L9I]	3.54
FPSDHLGDFGDPFHLGLEDILMEE [L9F]	3.45
FPSDHLGDMGDPFHLGLEDILMEE [L9M]	3.74
FPSDHLGDAGDPFHLGLEDILMEE [L9A]	3.63
FPSDHLGDLGDPFRLGLEDILMEE [H14R]	3.52
FPSDHLGDLGDPFDLGLEDILMEE [H14D]	4.61

— the supplement of paper PMC10567573
